This is an account of results in patent US20050255464A1, “Methods for the identification of peptidyl compounds interacting with extracellular target molecules” (priority 2001, published 2005).

This assay concerns the target fusion protein encoded by plasmid pIcoFLAGXa (amino terminal FLAG epitope, Factor Xa cleavage sequence Ile-Glu-Gly-Arg-Gly, thioredoxin with the V5 epitope at the active site, GPI linkage), displayed on COS7 cells (E. coli) [thioredoxin: P0AA25]. The assay is described as follows: cell-based or functional assay.

For the substance Factor Xa (enzyme), the cells selected on streptavidin magnetic beads with biotin anti-FLAG antibody after incubation with Factor Xa is 0 % of cells.
